# Measurements reported in US20240059799A1 (Pfizer, published 2024).
# Numbering of substitutions follows the chain as printed.
# T1: recombinant human TL1A (human, UniProt O95150 71-251)
# T1 chain: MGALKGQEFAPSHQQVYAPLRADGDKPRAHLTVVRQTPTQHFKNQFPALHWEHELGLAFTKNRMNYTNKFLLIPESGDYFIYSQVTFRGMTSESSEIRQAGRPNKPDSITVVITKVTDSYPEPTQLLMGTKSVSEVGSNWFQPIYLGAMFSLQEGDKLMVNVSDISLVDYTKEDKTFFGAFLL
# T2: full-length human TL1A on CHO-K1 cells (human, UniProt O95150 1-251)
# T2 construct: whole, on cells; also called cells over-expressing human TL1A
# T2 sequence (looked up): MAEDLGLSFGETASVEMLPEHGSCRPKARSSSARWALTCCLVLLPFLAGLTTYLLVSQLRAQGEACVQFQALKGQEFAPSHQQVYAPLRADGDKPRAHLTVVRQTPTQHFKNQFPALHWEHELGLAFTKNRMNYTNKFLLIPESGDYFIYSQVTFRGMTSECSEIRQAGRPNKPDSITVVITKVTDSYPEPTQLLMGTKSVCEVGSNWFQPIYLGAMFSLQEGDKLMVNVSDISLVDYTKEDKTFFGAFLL
# B1: TL1A-0371 (bispecific antibody)
# heavy 1: QVQLVQSGAEVKKPGASVKVSCKASGYDYTYYGISWVRQAPGQGLEWMGWISTYNTGTHYAPSLQGRVTMTTDTSTSTAYMELRSLRSDDTAVYYCARESYYGSGAFRGGMDVWGQGTTVTVSSASTKGPSVFPLAPSSKSTSGGTAALGCLVKDYFPEPVTVSWNSGALTSGVHTFPAVLQSSGLYSLSSVVTVPSSSLGTQTYICNVNHKPSNTKVDKKVEPKSCDKTHTCPPCPAPEAAGAPSVFLFPPKPKDTLMISRTPEVTCVVVDVSHEDPEVKFNWYVDGVEVHNAKTKPREEQYNSTYRVVSVLTVLHQDWLNGKEYKCKVSNKALPAPIEKTISKAKGQPREPQVCTLPPSREEMTKNQVSLWCLVKGFYPSDIAVEWESNGQPENNYKTTPPVLDSDGSFFLYSKLTVDKSRWQQGNVFSCSVLHEALHSHYTQKSLSLSPGK
# heavy 2: not shown
# light: not shown
# notes: also called TL1A-0371 MBsAb; not shown: human IgG1 constant region with effector-minimizing, KiH and LS mutations
# B2: TL1A-0374 (bispecific antibody)
# heavy 1: B1 heavy 1
# heavy 2: not shown
# light: not shown
# notes: also called TL1A-0374 MBsAb; not shown: human IgG1 constant region with effector-minimizing, KiH and LS mutations
# B3: TL1A-0326 (antibody, human IgG1, kappa)
# heavy 1: B1 heavy 1
# heavy 2: EPKSSDKTHTCPPCPAPEAAGAPSVFLFPPKPKDTLMISRTPEVTCVVVDVSHEDPEVKFNWYVDGVEVHNAKTKPREEQYNSTYRVVSVLTVLHQDWLNGKEYKCKVSNKALPAPIEKTISKAKGQPREPQVYTLPPCREEMTKNQVSLSCAVKGFYPSDIAVEWESNGQPENNYKTTPPVLDSDGSFFLVSKLTVDKSRWQQGNVFSCSVLHEALHSHYTQKSLSLSPGK
# light: not shown
# notes: one-armed (monovalent) antibody derived from TL1A-0260
# B4: TL1A-0375 (bispecific antibody)
# heavy 1: B1 heavy 1
# heavy 2: not shown
# light: not shown
# notes: also called TL1A-0375 MBsAb; not shown: human IgG1 constant region with effector-minimizing, KiH and LS mutations
# B5: TL1A-0373 (bispecific antibody)
# heavy 1: B1 heavy 1
# heavy 2: not shown
# light: not shown
# notes: not shown: human IgG1 constant region with effector-minimizing, KiH and LS mutations
# B6: TL1A-0371 MBsAb (bispecific antibody)
# heavy 1: B1 heavy 1
# heavy 2: not shown
# light: not shown
# notes: not shown: human IgG1 constant region with hole KiH, effector-minimizing and LS mutations
# B7: TL1A-0374 MBsAb (bispecific antibody)
# heavy 1: B1 heavy 1
# heavy 2: not shown
# light: not shown
# notes: as for B6
# B8: TL1A-0375 MBsAb (bispecific antibody)
# heavy 1: B1 heavy 1
# heavy 2: not shown
# light: not shown
# notes: as for B6
# B9: TL1A-0373 MBsAb (bispecific antibody)
# heavy 1: B1 heavy 1
# heavy 2: not shown
# light: not shown
# notes: as for B6
# B10: [xTL1A]-0336 (antibody, human IgG1, kappa, V domains shown)
# VH: QVQLVQSGAEVKKPGASVKVSCKASGYTFTSYGISWVRQAPGQGLEWMGWISAYNGNTNYAQKLQGRVTMTTDTSTSTAYMELRSLRSDDTAVYYCARESYYGSEAFRAGMDVWGQGTTVTVSS
# VL: DIQMTQSPSSLSASVGDRVTITCRASQSVSSYLAWYQQKPGKAPKLLIYDASNRATGVPSRFSGSGSGTDFTLTISSLQPEDFATYYCQQRSNWPWTFGQGTKVEIKR
# notes: bivalent disabled antibody, IgG1 effector-function-minimized/kappa
# B11: [xTL1A]-0352 (antibody, human IgG1, kappa, V domains shown)
# VH: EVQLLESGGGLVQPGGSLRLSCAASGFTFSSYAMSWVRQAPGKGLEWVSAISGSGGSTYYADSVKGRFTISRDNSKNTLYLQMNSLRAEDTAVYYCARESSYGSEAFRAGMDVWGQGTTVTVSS
# VL: B10 VL
# notes: as for B10
# B12: [xTL1A]-0363 (antibody, human IgG1, kappa, V domains shown)
# VH: not shown
# VL: B10 VL
# notes: as for B10
# B13: [xTL1A]-0347 (antibody, human IgG1, kappa, V domains shown)
# VH: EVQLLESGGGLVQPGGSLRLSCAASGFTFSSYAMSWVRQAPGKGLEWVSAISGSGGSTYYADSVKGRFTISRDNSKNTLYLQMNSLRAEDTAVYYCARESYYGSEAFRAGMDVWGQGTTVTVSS
# VL: B10 VL
# notes: as for B10
# B14: [xTL1A]-0349 (antibody, human IgG1, kappa, V domains shown)
# VH: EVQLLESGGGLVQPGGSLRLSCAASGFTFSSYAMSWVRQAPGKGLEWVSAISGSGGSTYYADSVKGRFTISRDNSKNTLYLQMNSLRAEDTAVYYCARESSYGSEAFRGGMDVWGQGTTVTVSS
# VL: B10 VL
# notes: as for B10
# B15: [xTL1A]-0338 (antibody, human IgG1, kappa, V domains shown)
# VH: B10 VH with Y101S, A109G
# VL: B10 VL
# notes: as for B10
# B16: [xTL1A]-0358 (antibody, human IgG1, kappa, V domains shown)
# VH: not shown
# VL: B10 VL
# notes: as for B10
# Biological target: T1, recombinant human TL1A
# Experiment: cell-based or functional assay
row,NFκB Bioassay IC50 [pM],Binder
1,1370,B1
2,1490,B2
3,1280,B3
4,1350,B4
5,1660,B5

# Biological target: T1, recombinant human TL1A
# Experiment: SPR, recombinant human TL1A
Kd [pM],koff [s⁻¹],kon [M⁻¹ s⁻¹],Binder
261,4.36e-05,168000,B1
268,5.59e-05,209000,B2
292,5.84e-05,200000,B3
232,4.9e-05,211000,B4
285,4.95e-05,173000,B5

# Biological target: T3, bovine serum albumin (bovine, UniProt P02769 25-607)
# T3 construct: also called BSA
# T3 sequence (P02769 25-607 limits assumed): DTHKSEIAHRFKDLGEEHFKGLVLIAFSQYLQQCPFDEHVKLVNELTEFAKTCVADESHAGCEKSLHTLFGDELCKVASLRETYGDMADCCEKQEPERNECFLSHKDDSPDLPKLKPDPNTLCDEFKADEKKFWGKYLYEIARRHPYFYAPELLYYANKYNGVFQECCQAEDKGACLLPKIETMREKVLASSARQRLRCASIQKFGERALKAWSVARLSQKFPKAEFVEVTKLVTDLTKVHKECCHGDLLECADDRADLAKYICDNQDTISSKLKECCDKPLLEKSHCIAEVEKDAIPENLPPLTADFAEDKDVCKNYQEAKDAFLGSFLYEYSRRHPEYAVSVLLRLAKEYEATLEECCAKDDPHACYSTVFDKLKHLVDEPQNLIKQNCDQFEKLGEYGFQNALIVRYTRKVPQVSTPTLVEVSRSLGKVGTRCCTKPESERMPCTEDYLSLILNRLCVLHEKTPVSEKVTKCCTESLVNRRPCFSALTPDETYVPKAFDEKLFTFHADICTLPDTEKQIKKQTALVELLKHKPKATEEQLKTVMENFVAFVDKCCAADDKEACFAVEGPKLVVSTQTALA
# Experiment: direct binding ELISA on coated BSA
# Experimental: (§1) For the direct binding ELISA method to HSA or BSA, 96-well high binding plates (Corning, product number 3590) were coated with 1 μg/mL recombinant HSA or BSA in 100 μL/well in PBS overnight at 4° C. Plates were then blocked in PBS+0.02% casein solution and washed with PBS+0.05% Tween-20 following standard ELISA protocol. […] Plates were washed with PBS+0.05% Tween-20 following standard ELISA protocol, and goat anti-human IgG-Fc HRP conjugated secondary antibody (Pierce, #31413) diluted to 1:10,000 in assay buffer was added to plates and incubated for 1 hour at room temperature. Next, the plates were washed with PBS+0.05% Tween-20 following standard ELISA protocol, and then TMB substrate (BioFX Laboratories, catalog number TMBW-0100-01) was added to plates.
# (§2) Reactions were stopped after approximately 5 minutes by adding 0.18 M ortho-phosphoric acid to each well and absorbance was read at 450 nm. […] For this method, samples diluted to 0.3 mg/mL were dispensed into the sample tray of a MicroCal VP-Capillary DSC with Autosampler (Malvern Instruments, Inc.), equilibrated for 5 minutes at 10° C. and then scanned up to 110° C. at a rate of 100° C. per/hour. A filtering period of 16 seconds was selected. Raw data was baseline corrected and the protein concentration was normalized. Origin Software 7.0 (Origin Lab Corporation, Northampton, MA) was used to fit the data to an MN2-State Model with an appropriate number of transitions.
row,binding result,Binder
1,no binding (tested: 0.5-1000 nM),B6
2,no binding (tested: 0.5-1000 nM),B7
3,no binding (tested: 0.5-1000 nM),B8
4,no binding (tested: 0.5-1000 nM),B9

# Biological target: T4, human serum albumin (human, UniProt P02768 25-609)
# T4 construct: also called HSA
# Experiment: direct binding ELISA on coated HSA
# Experimental: as §1, §2
row,binding result,Binder
1,no binding (tested: 0.5-1000 nM),B6
2,no binding (tested: 0.5-1000 nM),B7
3,no binding (tested: 0.5-1000 nM),B8
4,no binding (tested: 0.5-1000 nM),B9

# Biological target: T3, bovine serum albumin
# Experiment: direct binding ELISA on plate-coated BSA (1 ug/mL), anti-human IgG-Fc HRP, OD450
# Experimental: as §1, §2
row,binding result,Binder
1,no binding (tested: 1e-6 M),B1
2,no binding (tested: 1e-6 M),B2
3,no binding (tested: 1e-6 M),B3
4,no binding (tested: 1e-6 M),B4
5,no binding (tested: 1e-6 M),B5

# Biological target: T4, human serum albumin
# Experiment: direct binding ELISA on plate-coated HSA (1 ug/mL), anti-human IgG-Fc HRP, OD450
# Experimental: as §1, §2
row,binding result,Binder
1,no binding (tested: 1e-6 M),B1
2,no binding (tested: 1e-6 M),B2
3,no binding (tested: 1e-6 M),B3
4,no binding (tested: 1e-6 M),B4
5,no binding (tested: 1e-6 M),B5

# Biological target: T1, recombinant human TL1A
# Experiment: direct binding ELISA on plate-coated recombinant human TL1A (1 ug/mL), anti-human IgG-Fc HRP, OD450
# Experimental: For the direct binding ELISA, 96-well high binding plates (Corning, product number 3590) were coated with 1 μg/mL recombinant TL1A in 100 μL/well in PBS overnight at 4° C. Plates were then blocked in PBS+0.02% casein solution and washed with PBS+0.05% Tween-20 following standard ELISA protocol. […] Plates were washed with PBS+0.05% Tween-20 following a standard ELISA protocol, and goat anti-human IgG-Fc HRP conjugated secondary antibody (Pierce, catalog number 31413) diluted to 1:10,000 in assay buffer was added to plates and incubated for 1 hour at room temperature. Next, the plates were washed with PBS+0.05% Tween-20 following a standard ELISA protocol, and then TMB substrate (BioFX Laboratories, catalog number TMBW-0100-01) was added to the plates. Reactions were stopped after approximately 5 minutes by adding 0.18 M ortho-phosphoric acid to each well and absorbance was read at 450 nm.
row,binding result,Binder
1,no binding (tested: 33.3 nM),B10
2,no binding (tested: 33.3 nM),B11
3,no binding (tested: 33.3 nM),B12
4,no binding (tested: 33.3 nM),B13
5,no binding (tested: 33.3 nM),B14
6,no binding (tested: 33.3 nM),B15
7,no binding (tested: 33.3 nM),B16

# Biological target: T2, full-length human TL1A on CHO-K1 cells
# Experiment: flow cytometry on CHO-K1 cells stably expressing full-length human TL1A, PE anti-human IgG, median fluorescent intensity
# Experimental: A cell binding assay was performed to examine if the panel of [xTL1A] bivalent antibody variants could bind to human TL1A over-expressed on the cell surface. […] [xTL1A] bivalent antibody variants were incubated with cells on ice for 30-60 minutes at a concentration of either 1 μg/mL or 20 μg/mL. Cells were pelleted by centrifugation at 1500 RPM for 5 minutes at 4° C. and supernatant was discarded by aspiration. The cells were washed three times with DPBS with 4% FBS buffer as described. Cells were resuspended in 100 μL of PE-anti-human IgG (Life technologies Catalog number H10104) diluted 1:500 in DPBS with 4% FBS buffer and incubated on ice for 15 minutes. Cells were washed three times as described and resuspended in 200 μL of DPBS with 4% FBS buffer, then run on a flow cytometry instrument.
row,binding result,Binder
1,no binding (tested: 20 ug/mL),B10
2,no binding (tested: 20 ug/mL),B11
3,no binding (tested: 20 ug/mL),B12
4,no binding (tested: 20 ug/mL),B13
5,no binding (tested: 20 ug/mL),B14
6,no binding (tested: 20 ug/mL),B15
7,no binding (tested: 20 ug/mL),B16
